The results in this text go back to the supplement of paper PMC12067230.

± gives the uncertainty stated by the source.

B1: E-18-F; numbered along this chain (parent)
chain: EASNCFAIRHFENKFAVETLICFNLFLNSQEKHY

In this series the parent is B1. As to the kind of experiment: amyloid nucleation score relative to WT ADan (yeast Sup35 reporter selection) (log enrichment difference); higher = more amyloid nucleation. As for the experimental part: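 Deep mutational scan of the ADan peptide fused to the Sup35 nucleation domain (SupN) in S. cerevisiae [psi-pin-], covering all single amino-acid substitutions and stop truncations (truncations = sequence up to the stop). After 24 h Cu2+ induction, cells were selected on -ADE-URA plates for 7 d at 30 °C. The nucleation score is log enrichment (output/input, deep sequencing) minus that of WT ADan, as the error-weighted mean of 3 biological replicates (DiMSum).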
As for EASNCFAIRHFENKFAVFTLICFNLFLNSQEKHY [E18F], the amyloid nucleation score is -2.56 ± 0.22. For the variant EASNCFAIRHFENKFAVITLICFNLFLNSQEKHY [E18I], the amyloid nucleation score is -3.49 ± 0.49.

In the case of EASNCFAIRHFENKFAVLTLICFNLFLNSQEKHY [E18L], the amyloid nucleation score is -2.63 ± 0.27. On to EASNCFAIRHFENKFAVWTLICFNLFLNSQEKHY [E18W], for which the amyloid nucleation score is -4.12 ± 0.54.

As to EASNCFAIRHFENKFAVGTLICFNLFLNSQEKHY [E18G], the amyloid nucleation score is 0.127 ± 0.1. The same measure for EASNCFAIRHFENKFAVETEICFNLFLNSQEKHY [L20E]: -3.91 ± 0.49; for EASNCFAIRHFENKFAVETIICFNLFLNSQEKHY [L20I]: -0.22 ± 0.15. The same measure for EASNCFAIRHFENKFAVETPICFNLFLNSQEKHY [L20P]: 0.75 ± 0.16.

On to EASNCFAIRHFENKFAVETMICFNLFLNSQEKHY [L20M], for which the amyloid nucleation score was 1.01 ± 0.17. For EASNCFAIRHFENKFAVETQICFNLFLNSQEKHY [L20Q], the amyloid nucleation score is -1.95 ± 0.24. To EASNCFAIRHFENKFAVETSICFNLFLNSQEKHY [L20S] belongs -3.53 ± 0.23; to EASNCFAIRHFENKFAVETFICFNLFLNSQEKHY [L20F], -0.103 ± 0.12. The same measure for EASNCFAIRHFENKFAVETNICFNLFLNSQEKHY [L20N]: -1.24 ± 0.19; for EASNCFAIRHFENKFAVETTICFNLFLNSQEKHY [L20T]: -2.92 ± 0.34; for EASNCFAIRHFENKFAVETVICFNLFLNSQEKHY [L20V]: -1.46 ± 0.12. Take EASNCFAIRHFENKFAVETGICFNLFLNSQEKHY [L20G]: the amyloid nucleation score stood at 0.273 ± 0.097. To EASNCFAIRHFENKFAVETDICFNLFLNSQEKHY [L20D] belongs -2.35 ± 0.21.

Consider EASNCFAIRHFENKFAVETAICFNLFLNSQEKHY [L20A], for which the amyloid nucleation score was -1.66 ± 0.16. The same measure for EASNCFAIRHFENKFAVETCICFNLFLNSQEKHY [L20C]: -0.49 ± 0.13; for EASNCFAIRHFENKFAVETHICFNLFLNSQEKHY [L20H]: -2.5 ± 0.26. The same measure for EASNCFAIRHFENKFAVETKICFNLFLNSQEKHY [L20K]: -4.53 ± 0.6. Consider EASNCFAIRHFENKFAVETWICFNLFLNSQEKHY [L20W], for which the amyloid nucleation score is -2.59 ± 0.24.

Consider EASNCFAIRHFENKFAVETYICFNLFLNSQEKHY [L20Y], for which the amyloid nucleation score is -2.66 ± 0.28. The same measure for EASNCFAIRHFENKFAVETRICFNLFLNSQEKHY [L20R]: -3.67 ± 0.24; for EASNCFAIRHFENKFAVETLIQFNLFLNSQEKHY [C22Q]: 0.969 ± 0.17. To EASNCFAIRHFENKFAVETLIWFNLFLNSQEKHY [C22W] belongs -2.89 ± 0.21; to EASNCFAIRHFENKFAVETLIHFNLFLNSQEKHY [C22H], -1.92 ± 0.28; to EASNCFAIRHFENKFAVETLIFFNLFLNSQEKHY [C22F], -0.753 ± 0.13. To EASNCFAIRHFENKFAVETLITFNLFLNSQEKHY [C22T] belongs -0.69 ± 0.14; to EASNCFAIRHFENKFAVETLIIFNLFLNSQEKHY [C22I], -0.375 ± 0.17. With EASNCFAIRHFENKFAVETLIRFNLFLNSQEKHY [C22R], the amyloid nucleation score was -3.03 ± 0.21. The same measure for EASNCFAIRHFENKFAVETLIGFNLFLNSQEKHY [C22G]: -1.17 ± 0.097. The same measure for EASNCFAIRHFENKFAVETLISFNLFLNSQEKHY [C22S]: -1.65 ± 0.1; for EASNCFAIRHFENKFAVETLIYFNLFLNSQEKHY [C22Y]: -2.4 ± 0.18. The same measure for EASNCFAIRHFENKFAVETLILFNLFLNSQEKHY [C22L]: -0.346 ± 0.099; for EASNCFAIRHFENKFAVETLIEFNLFLNSQEKHY [C22E]: -2.4 ± 0.2; for EASNCFAIRHFENKFAVETLIDFNLFLNSQEKHY [C22D]: -3.23 ± 0.32. With EASNCFAIRHFENKFAVETLIPFNLFLNSQEKHY [C22P], the amyloid nucleation score was -3.23 ± 0.46. The same measure for EASNCFAIRHFENKFAVETLIVFNLFLNSQEKHY [C22V]: 0.222 ± 0.1; for EASNCFAIRHFENKFAVETLINFNLFLNSQEKHY [C22N]: 0.532 ± 0.16. The same measure for EASNCFAIRHFENKFAVETLIAFNLFLNSQEKHY [C22A]: 0.347 ± 0.1. The same measure for EASNCFAIRHFENKFAVETLIKFNLFLNSQEKHY [C22K]: -2.31 ± 0.24; for EASNCFAIRHFENKFVVETLICFNLFLNSQEKHY [A16V]: -0.233 ± 0.1; for EASNCFAIRHFENKFQVETLICFNLFLNSQEKHY [A16Q]: 0.708 ± 0.17. As for EASNCFAIRHFENKFLVETLICFNLFLNSQEKHY [A16L], the amyloid nucleation score is -0.774 ± 0.099. The same measure for EASNCFAIRHFENKFNVETLICFNLFLNSQEKHY [A16N]: 0.755 ± 0.16; for EASNCFAIRHFENKFKVETLICFNLFLNSQEKHY [A16K]: 0.514 ± 0.17. The same measure for EASNCFAIRHFENKFHVETLICFNLFLNSQEKHY [A16H]: 0.76 ± 0.31; for EASNCFAIRHFENKFWVETLICFNLFLNSQEKHY [A16W]: -0.102 ± 0.13; for EASNCFAIRHFENKFGVETLICFNLFLNSQEKHY [A16G]: 0.407 ± 0.091. As to EASNCFAIRHFENKFFVETLICFNLFLNSQEKHY [A16F], the amyloid nucleation score is 0.651 ± 0.16. Turning to EASNCFAIRHFENKFSVETLICFNLFLNSQEKHY [A16S], the amyloid nucleation score is 0.414 ± 0.1.

EASNCFAIRHFENKFTVETLICFNLFLNSQEKHY [A16T]: the amyloid nucleation score worked out at 0.448 ± 0.14. To EASNCFAIRHFENKFMVETLICFNLFLNSQEKHY [A16M] belongs -0.212 ± 0.15; to EASNCFAIRHFENKFIVETLICFNLFLNSQEKHY [A16I], -0.647 ± 0.19.

As for EASNCFAIRHFENKFPVETLICFNLFLNSQEKHY [A16P], the amyloid nucleation score was -1.2 ± 0.21. As to EASNCFAIRHFENKFYVETLICFNLFLNSQEKHY [A16Y], the amyloid nucleation score came to 0.572 ± 0.16. To EASNCFAIRHFENKFRVETLICFNLFLNSQEKHY [A16R] belongs 0.372 ± 0.1; to EASNCFAIRHFENKFAVETLICKNLFLNSQEKHY [F23K], 0.342 ± 0.22; to EASNCFAIRHFENKFAVETLICPNLFLNSQEKHY [F23P], -1.99 ± 0.31. Regarding EASNCFAIRHFENKFAVETLICMNLFLNSQEKHY [F23M], the amyloid nucleation score was 0.264 ± 0.21. In the case of EASNCFAIRHFENKFAVETLICNNLFLNSQEKHY [F23N], the amyloid nucleation score was -0.504 ± 0.4. The same measure for EASNCFAIRHFENKFAVETLICLNLFLNSQEKHY [F23L]: 0.404 ± 0.084. As for EASNCFAIRHFENKFAVETLICENLFLNSQEKHY [F23E], the amyloid nucleation score worked out at 0.416 ± 0.16.

Consider EASNCFAIRHFENKFAVETLICANLFLNSQEKHY [F23A], for which the amyloid nucleation score was found to be 0.41 ± 0.13.

With EASNCFAIRHFENKFAVETLICRNLFLNSQEKHY [F23R], the amyloid nucleation score is 0.617 ± 0.092. For the variant EASNCFAIRHFENKFAVETLICGNLFLNSQEKHY [F23G], the amyloid nucleation score worked out at 0.469 ± 0.087. To EASNCFAIRHFENKFAVETLICINLFLNSQEKHY [F23I] belongs -0.248 ± 0.2; to EASNCFAIRHFENKFAVETLICQNLFLNSQEKHY [F23Q], 0.146 ± 0.17. Consider EASNCFAIRHFENKFAVETLICDNLFLNSQEKHY [F23D], for which the amyloid nucleation score came to 0.717 ± 0.2. For EASNCFAIRHFENKFAVETLICHNLFLNSQEKHY [F23H], the amyloid nucleation score came out at 0.305 ± 0.19. To EASNCFAIRHFENKFAVETLICCNLFLNSQEKHY [F23C] belongs 0.666 ± 0.14.
